# B1: ScpA_(S512A,D783A) (enzyme)
# chain: ANTVTEDTPVTEQAVETPQPTAVSEEVPSSKETKTPQTPDDAEETIADDANDLAPQAPAKTADTPATSKATIRDLNDPSQVKTLQEKAGKGAGTVVAVIDAGFDKNHEAWRLTDKTKARYQSKEDLEKAKKEHGITYGEWVNDKVAYYHDYSKDGKTAVDQEHGTHVSGILSGNAPSETKEPYRLEGAMPEAQLLLMRVEIVNGLADYARNYAQAIRDAVNLGAKVINMSFGNAALAYANLPDETKKAFDYAKSKGVSIVTSAGNDSSFGGKTRLPLADHPDYGVVGTPAAADSTLTVASYSPDKQLTETAMVKTDDQQDKEMPVLSTNRFEPNKAYDYAYANRGMKEDDFKDVKGKIALIERGDIDFKDKVANAKKAGAVGVLIYDNQDKGFPIELPNVDQMPAAFISRKDGLLLKDNPQKTITFNATPKVLPTASGTKLSRFSSWGLTADGNIKPDIAAPGQDILSSVANNKYAKLSGTAMSAPLVAGIMGLLQKQYETQYPDMTPSERLDLAKKVLMSSATALYDEDEKAYFSPRQQGAGAVDAKKASAATMYVTDKDNTSSKVHLNNVSDKFEVTVTVHNKSDKPQELYYQATVQTDKVDGKHFALAPKVLYEASWQKITIPANSSKQVTVPIDASRFSKDLLAQMKNGYFLEGFVRFKQDPTKEELMSIPYIGFRGDFGNLSAVEKPIYDSKDGSSYYHEANSDAKDQLDGDGLQFYALKNNFTALTTESNPWTIIKAVKEGVENIEAIESSEITETIFAGTFAKQDDDSHYYIHRHANGEPYAAISPNGDGNRDYVQFQGTFLRNAKNLVAEVLDKEGNVVWTSEVTEQVVKNYNNDLASTLGSTRFEKTRWDGKDKDGKVVANGTYTYRVRYTPISSGAKEQHTDFDVIVDNTTPEVATSATFSTEDRRLTLASKPKTSQPVYRERIAYTYMDEDLPTTEYISPNEDGTFTLPEEAETMEGATVPLKMSDFTYVVEDMAGNITYTPVTKLLEGHS
# Legend:
# R37A_(core) (human) = assay: SPR; as a1 (NTA chip, immobilised His-tagged C5a form, D783A_(S512A) flowed, 25 °C, Hepes buffer), but KD from fitting of the response units at equilibrium because of very fast dissociation; triplicate
# R40A_(core) (human) = assay: as above
# R46A_(core) (human) = assay: as above
# rhC5a_(R37A) (human) = assay: as above
# rhC5a_(R40A) (human) = assay: as above
# rhC5a_(R46A) (human) = assay: as above
# rhC5a_(core) (human) = assay: SPR; BIAcore X100, NTA sensor chip with about 20-25 RU of immobilised His-tagged C5a form (ligand), ScpA form flowed as ligate at 30 uL/min, 25 °C, 10 mM Hepes-KOH pH 7.4, 150 mM NaCl, 0.005% Tween 20, 50 uM EDTA; global fit, 1:1 Langmuir model with drifting baseline; triplicate
binder,measurement,setting,value
B1,Kd,R37A_(core) (human),> 10000 nM
same,Kd,R40A_(core) (human),> 15000 nM
same,Kd,R46A_(core) (human),4330 nM
same,Kd,rhC5a_(R37A) (human),2000 nM
same,Kd,rhC5a_(R40A) (human),1500 nM
same,Kd,rhC5a_(R46A) (human),669 nM
same,Kd,rhC5a_(core) (human),1970 nM
same,koff,rhC5a_(core) (human),0.0216 s⁻¹
same,kon,rhC5a_(core) (human),11000 M⁻¹ s⁻¹

# From paper PMC9464890, “Exosite binding modulates the specificity of the immunomodulatory enzyme ScpA, a C5a inactivating bacterial protease” (Computational and Structural Biotechnology Journal, 2022)
